From IntAct's records for PubMed 19804756 come the findings set out here.

One assay deals with nbs1_schpo nbs1 (UniProt O43070).
In the next assay the target is nbn_human NBN (UniProt O60934).
nbn_human NBN, sequence (O60934 whole entry): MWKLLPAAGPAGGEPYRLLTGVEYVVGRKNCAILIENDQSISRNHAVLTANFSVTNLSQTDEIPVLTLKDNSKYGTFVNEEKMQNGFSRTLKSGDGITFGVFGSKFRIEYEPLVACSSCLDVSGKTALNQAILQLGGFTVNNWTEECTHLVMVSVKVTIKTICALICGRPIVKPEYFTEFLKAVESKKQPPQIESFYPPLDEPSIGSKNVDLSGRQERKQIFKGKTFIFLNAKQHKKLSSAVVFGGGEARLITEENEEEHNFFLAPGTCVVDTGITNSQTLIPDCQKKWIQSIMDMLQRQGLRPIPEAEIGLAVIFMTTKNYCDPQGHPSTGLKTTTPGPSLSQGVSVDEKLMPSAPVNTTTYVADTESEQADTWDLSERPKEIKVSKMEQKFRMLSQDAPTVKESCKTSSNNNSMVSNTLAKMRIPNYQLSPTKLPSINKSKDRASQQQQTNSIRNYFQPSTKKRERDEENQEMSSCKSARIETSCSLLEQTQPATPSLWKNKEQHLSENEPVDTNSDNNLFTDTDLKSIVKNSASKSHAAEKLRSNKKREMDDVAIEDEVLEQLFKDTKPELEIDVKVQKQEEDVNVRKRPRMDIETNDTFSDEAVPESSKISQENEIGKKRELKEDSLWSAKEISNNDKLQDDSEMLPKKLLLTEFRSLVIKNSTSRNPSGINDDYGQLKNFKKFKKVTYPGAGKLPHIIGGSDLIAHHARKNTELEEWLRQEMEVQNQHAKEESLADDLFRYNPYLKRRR

nbs1_schpo nbs1, sequence (O43070 whole entry): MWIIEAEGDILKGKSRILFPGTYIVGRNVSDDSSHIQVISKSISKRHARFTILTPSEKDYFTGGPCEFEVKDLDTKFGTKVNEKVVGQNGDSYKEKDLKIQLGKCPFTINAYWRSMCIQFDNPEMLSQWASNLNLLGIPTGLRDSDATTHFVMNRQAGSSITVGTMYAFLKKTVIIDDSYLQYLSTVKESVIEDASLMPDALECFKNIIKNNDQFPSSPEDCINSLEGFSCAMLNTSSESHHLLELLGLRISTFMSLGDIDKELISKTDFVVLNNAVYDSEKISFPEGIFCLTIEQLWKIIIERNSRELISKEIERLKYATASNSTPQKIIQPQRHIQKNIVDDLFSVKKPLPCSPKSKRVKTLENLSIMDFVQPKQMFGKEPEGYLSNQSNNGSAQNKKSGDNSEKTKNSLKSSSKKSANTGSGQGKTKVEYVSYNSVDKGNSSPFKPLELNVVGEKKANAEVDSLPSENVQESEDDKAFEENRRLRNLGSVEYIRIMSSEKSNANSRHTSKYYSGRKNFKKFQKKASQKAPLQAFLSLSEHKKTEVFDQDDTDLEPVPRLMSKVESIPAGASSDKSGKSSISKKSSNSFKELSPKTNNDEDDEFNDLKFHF

Turning to “Mediator of DNA damage checkpoint protein 1 (Homo sapiens), Q14676 E334A”, the “effect of a mutation on the interaction” value with nbs1_schpo nbs1 is recorded as “decreasing interaction”.

With “Mediator of DNA damage checkpoint protein 1 (Homo sapiens), Q14676 T331S”, the “effect of a mutation on the interaction” value in the assay with nbn_human NBN is reported as “decreasing interaction”.
